Key:
Experiment in all cases: holdup assay
Set-up in all cases: key: below the threshold = too weak to quantify, mostly under pKd 3.1 to 4
MAST3, O60307 = target: MAST3, O60307
DLG5_2, Q8TDM6 = target: DLG5_2, Q8TDM6
SHROOM4, Q9ULL8 = target: T1, SHROOM4, Q9ULL8
T1 sequence (Q9ULL8 5-102, limits assumed, looked up): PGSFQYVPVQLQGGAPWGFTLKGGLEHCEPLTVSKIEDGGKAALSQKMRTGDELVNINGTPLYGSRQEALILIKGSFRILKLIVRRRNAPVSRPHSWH

MAGI3_3, Q5TCQ9 = target: MAGI3_3, Q5TCQ9
LMO7, Q8WWI1 = target: LMO7, Q8WWI1
MAGI2_1, Q86UL8 = target: T2, MAGI2_1, Q86UL8
T2 sequence (Q86UL8 12-111, limits assumed, looked up): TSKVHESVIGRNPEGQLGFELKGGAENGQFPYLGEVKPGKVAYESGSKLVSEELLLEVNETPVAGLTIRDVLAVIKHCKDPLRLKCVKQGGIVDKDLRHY

GIPC3, Q8TF64 = target: GIPC3, Q8TF64
USH1C_1, Q9Y6N9 = target: T3, USH1C_1, Q9Y6N9
T3 sequence (Q9Y6N9 82-179, limits assumed, looked up): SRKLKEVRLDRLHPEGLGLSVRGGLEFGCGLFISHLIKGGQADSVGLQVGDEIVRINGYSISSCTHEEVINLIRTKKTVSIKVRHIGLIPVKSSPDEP

LIMK1, P53667 = target: LIMK1, P53667
SHROOM3, Q8TF72 = target: T4, SHROOM3, Q8TF72
T4 sequence (Q8TF72 20-120, limits assumed, looked up): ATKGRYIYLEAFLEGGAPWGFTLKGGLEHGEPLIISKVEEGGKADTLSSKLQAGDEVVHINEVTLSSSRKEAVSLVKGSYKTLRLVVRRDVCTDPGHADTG

PDZD7_2, Q9H5P4 = target: T5, PDZD7_2, Q9H5P4
T5 sequence (Q9H5P4 205-303, limits assumed, looked up): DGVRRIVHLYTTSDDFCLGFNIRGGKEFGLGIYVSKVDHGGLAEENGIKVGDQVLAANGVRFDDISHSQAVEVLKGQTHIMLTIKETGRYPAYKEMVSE

CNKSR1, Q969H4 = target: T6, CNKSR1, Q969H4
T6 sequence (Q969H4 191-295, limits assumed, looked up): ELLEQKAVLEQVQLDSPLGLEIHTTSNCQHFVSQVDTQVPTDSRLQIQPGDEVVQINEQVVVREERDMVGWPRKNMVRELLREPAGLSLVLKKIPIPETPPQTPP

GRIP2_2, Q9C0E4 = target: GRIP2_2, Q9C0E4
MAGI3_5, Q5TCQ9 = target: MAGI3_5, Q5TCQ9
GIPC1, O14908 = target: T7, GIPC1, O14908
T7 sequence (O14908 128-223, limits assumed, looked up): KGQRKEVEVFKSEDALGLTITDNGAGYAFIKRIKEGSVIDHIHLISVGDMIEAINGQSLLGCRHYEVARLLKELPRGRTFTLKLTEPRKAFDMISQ

SNTB2, Q13425 = target: T8, SNTB2, Q13425
T8 sequence (Q13425 110-208, limits assumed, looked up): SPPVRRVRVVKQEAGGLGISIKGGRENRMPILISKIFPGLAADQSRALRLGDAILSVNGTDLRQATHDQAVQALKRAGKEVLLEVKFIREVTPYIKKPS

MPDZ_11, O75970 = target: T9, MPDZ_11, O75970
T9 sequence (O75970 1720-1817, limits assumed, looked up): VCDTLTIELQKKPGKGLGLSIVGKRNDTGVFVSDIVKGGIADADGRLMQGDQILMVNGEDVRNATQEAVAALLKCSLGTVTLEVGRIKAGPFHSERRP

PARD3B_2, Q8TEW8 = target: PARD3B_2, Q8TEW8
SHANK2, Q9UPX8 = target: T10, SHANK2, Q9UPX8
T10 sequence (Q9UPX8 621-730, limits assumed, looked up): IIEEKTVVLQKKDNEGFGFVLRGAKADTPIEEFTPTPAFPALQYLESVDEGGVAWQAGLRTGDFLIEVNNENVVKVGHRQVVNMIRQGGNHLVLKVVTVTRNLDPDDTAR

MAGI1_6, Q96QZ7 = target: MAGI1_6, Q96QZ7
MAGI1_5, Q96QZ7 = target: MAGI1_5, Q96QZ7
PDZD4, Q76G19 = target: T11, PDZD4, Q76G19
T11 sequence (Q76G19 125-224, limits assumed, looked up): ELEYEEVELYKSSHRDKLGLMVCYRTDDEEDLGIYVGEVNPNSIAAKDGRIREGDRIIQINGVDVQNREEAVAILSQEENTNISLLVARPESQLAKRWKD

PDZD2_6, O15018 = target: T12, PDZD2_6, O15018
T12 sequence (O15018 2745-2839, limits assumed, looked up): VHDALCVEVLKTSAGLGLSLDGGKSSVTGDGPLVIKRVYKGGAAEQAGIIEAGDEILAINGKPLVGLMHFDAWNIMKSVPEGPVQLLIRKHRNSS

CARD14, Q9BXL6 = target: CARD14, Q9BXL6
[1] = plain residues with an end cap or a label only (N-terminal biotin on a linker: none)
[2] = plain residues with an end cap or a label only (N-terminal biotin on a linker: ttds)

Chain of MAGI3_3, Q5TCQ9 (Q5TCQ9 572-655): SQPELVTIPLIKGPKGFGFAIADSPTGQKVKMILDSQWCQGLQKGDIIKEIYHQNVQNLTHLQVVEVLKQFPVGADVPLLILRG
Chain of MAGI3_5, Q5TCQ9 (Q5TCQ9 847-941): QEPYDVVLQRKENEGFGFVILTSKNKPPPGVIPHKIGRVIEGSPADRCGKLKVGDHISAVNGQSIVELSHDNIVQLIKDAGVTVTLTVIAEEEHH
Chain of MAGI1_5, Q96QZ7 (Q96QZ7 986-1098): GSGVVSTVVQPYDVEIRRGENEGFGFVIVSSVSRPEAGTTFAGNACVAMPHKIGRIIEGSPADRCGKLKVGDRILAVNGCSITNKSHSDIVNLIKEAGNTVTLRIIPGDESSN
Chain of GIPC3, Q8TF64 (Q8TF64 107-202): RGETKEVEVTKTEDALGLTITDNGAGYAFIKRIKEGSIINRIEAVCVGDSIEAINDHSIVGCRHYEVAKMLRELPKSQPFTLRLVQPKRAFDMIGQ
Chain of MAGI1_6, Q96QZ7 (Q96QZ7 1146-1238): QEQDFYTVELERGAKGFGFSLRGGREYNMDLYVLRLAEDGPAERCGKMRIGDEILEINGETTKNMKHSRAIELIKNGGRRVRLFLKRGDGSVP
Chain of LMO7, Q8WWI1 (Q8WWI1 1037-1138): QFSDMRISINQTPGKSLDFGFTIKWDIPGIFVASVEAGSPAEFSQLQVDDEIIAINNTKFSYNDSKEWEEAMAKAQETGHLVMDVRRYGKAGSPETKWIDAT
Chain of MAST3, O60307 (O60307 945-1048): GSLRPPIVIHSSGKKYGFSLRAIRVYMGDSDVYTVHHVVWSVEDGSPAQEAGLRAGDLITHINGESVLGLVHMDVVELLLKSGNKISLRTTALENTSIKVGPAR
Chain of CARD14, Q9BXL6 (Q9BXL6 558-663): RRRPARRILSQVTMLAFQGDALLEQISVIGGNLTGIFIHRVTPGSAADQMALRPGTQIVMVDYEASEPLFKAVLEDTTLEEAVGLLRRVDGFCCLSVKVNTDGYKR
Chain of DLG5_2, Q8TDM6 (Q8TDM6 714-800): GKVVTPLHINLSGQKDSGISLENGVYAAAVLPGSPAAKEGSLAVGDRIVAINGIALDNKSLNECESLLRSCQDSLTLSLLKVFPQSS
Chain of PARD3B_2, Q8TEW8 (Q8TEW8 376-471): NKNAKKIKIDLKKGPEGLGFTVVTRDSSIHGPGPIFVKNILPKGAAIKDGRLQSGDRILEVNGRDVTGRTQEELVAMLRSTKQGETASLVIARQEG
Chain of LIMK1, P53667 (P53667 155-268): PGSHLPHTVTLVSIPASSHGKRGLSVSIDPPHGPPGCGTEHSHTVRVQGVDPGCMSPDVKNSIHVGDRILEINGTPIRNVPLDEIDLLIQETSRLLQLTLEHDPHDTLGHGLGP
Chain of GRIP2_2, Q9C0E4 (Q9C0E4 137-245): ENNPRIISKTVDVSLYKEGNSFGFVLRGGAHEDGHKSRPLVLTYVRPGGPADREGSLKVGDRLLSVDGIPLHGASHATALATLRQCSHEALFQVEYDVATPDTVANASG

## NLNSSRVPDLLV [SARS-CoV2-E, P0DTC4]
MAST3, O60307; [1]
  pKd: below the threshold
DLG5_2, Q8TDM6; [1]
  pKd: below the threshold
SHROOM4, Q9ULL8; [1]
  pKd: below the threshold
MAGI3_3, Q5TCQ9; [1]
  pKd: below the threshold
LMO7, Q8WWI1; [1]
  pKd: below the threshold
MAGI2_1, Q86UL8; [1]
  pKd: below the threshold
GIPC3, Q8TF64; [1]
  pKd: below the threshold
USH1C_1, Q9Y6N9; [1]
  pKd: below the threshold
LIMK1, P53667; [1]
  pKd: below the threshold
SHROOM3, Q8TF72; [1]
  pKd: below the threshold
PDZD7_2, Q9H5P4; [1]
  pKd: below the threshold
CNKSR1, Q969H4; [1]
  pKd: below the threshold
GRIP2_2, Q9C0E4; [1]
  pKd: below the threshold
MAGI3_5, Q5TCQ9; [1]
  pKd: below the threshold
GIPC1, O14908; [1]
  pKd: below the threshold
SNTB2, Q13425; [1]
  pKd: below the threshold
MPDZ_11, O75970; [1]
  pKd: below the threshold
PARD3B_2, Q8TEW8; [1]
  pKd: below the threshold
SHANK2, Q9UPX8; [1]
  pKd: below the threshold
MAGI1_6, Q96QZ7; [1]
  pKd: below the threshold
MAGI1_5, Q96QZ7; [1]
  pKd: below the threshold
PDZD4, Q76G19; [1]
  pKd: below the threshold
PDZD2_6, O15018; [1]
  pKd: 4.07
CARD14, Q9BXL6; [1]
  pKd: below the threshold

## RLPKIKETTV [FRMPD4, Q14CM0]
MAST3, O60307; [2]
  pKd: below the threshold
DLG5_2, Q8TDM6; [2]
  pKd: 4.7
SHROOM4, Q9ULL8; [2]
  pKd: below the threshold
MAGI3_3, Q5TCQ9; [2]
  pKd: below the threshold
LMO7, Q8WWI1; [2]
  pKd: 4.45
MAGI2_1, Q86UL8; [2]
  pKd: below the threshold
GIPC3, Q8TF64; [2]
  pKd: below the threshold
USH1C_1, Q9Y6N9; [2]
  pKd: below the threshold
LIMK1, P53667; [2]
  pKd: 4.48
SHROOM3, Q8TF72; [2]
  pKd: below the threshold
PDZD7_2, Q9H5P4; [2]
  pKd: below the threshold
CNKSR1, Q969H4; [2]
  pKd: below the threshold
GRIP2_2, Q9C0E4; [2]
  pKd: below the threshold
MAGI3_5, Q5TCQ9; [2]
  pKd: below the threshold
GIPC1, O14908; [2]
  pKd: 4.44
SNTB2, Q13425; [2]
  pKd: 5.36
MPDZ_11, O75970; [2]
  pKd: below the threshold
PARD3B_2, Q8TEW8; [2]
  pKd: below the threshold
SHANK2, Q9UPX8; [2]
  pKd: below the threshold
MAGI1_6, Q96QZ7; [2]
  pKd: 4.57
MAGI1_5, Q96QZ7; [2]
  pKd: 4.5
PDZD4, Q76G19; [2]
  pKd: below the threshold
PDZD2_6, O15018; [2]
  pKd: below the threshold
CARD14, Q9BXL6; [2]
  pKd: below the threshold

## RLQRRRETQV [HPV18-E6, P06463]
MAST3, O60307; [2]
  pKd: below the threshold
DLG5_2, Q8TDM6; [2]
  pKd: below the threshold
SHROOM4, Q9ULL8; [2]
  pKd: below the threshold
MAGI3_3, Q5TCQ9; [2]
  pKd: below the threshold
LMO7, Q8WWI1; [2]
  pKd: below the threshold
MAGI2_1, Q86UL8; [2]
  pKd: below the threshold
GIPC3, Q8TF64; [2]
  pKd: below the threshold
USH1C_1, Q9Y6N9; [2]
  pKd: below the threshold
LIMK1, P53667; [2]
  pKd: below the threshold
SHROOM3, Q8TF72; [2]
  pKd: below the threshold
PDZD7_2, Q9H5P4; [2]
  pKd: below the threshold
CNKSR1, Q969H4; [2]
  pKd: below the threshold
GRIP2_2, Q9C0E4; [2]
  pKd: 4.48
MAGI3_5, Q5TCQ9; [2]
  pKd: below the threshold
GIPC1, O14908; [2]
  pKd: 4.44
SNTB2, Q13425; [2]
  pKd: 4.58
MPDZ_11, O75970; [2]
  pKd: below the threshold
PARD3B_2, Q8TEW8; [2]
  pKd: below the threshold
SHANK2, Q9UPX8; [2]
  pKd: below the threshold
MAGI1_6, Q96QZ7; [2]
  pKd: below the threshold
MAGI1_5, Q96QZ7; [2]
  pKd: below the threshold
PDZD4, Q76G19; [2]
  pKd: below the threshold
PDZD2_6, O15018; [2]
  pKd: below the threshold
CARD14, Q9BXL6; [2]
  pKd: below the threshold

Source: PMC9482650, “Quantitative fragmentomics allow affinity mapping of interactomes” (Nature Communications, 2022)
